Measurements reported in patent publication US20130012451.

Molecular target: CD44, P16070
Sequence (P16070 other isoform, or with tags, fused parts or gaps): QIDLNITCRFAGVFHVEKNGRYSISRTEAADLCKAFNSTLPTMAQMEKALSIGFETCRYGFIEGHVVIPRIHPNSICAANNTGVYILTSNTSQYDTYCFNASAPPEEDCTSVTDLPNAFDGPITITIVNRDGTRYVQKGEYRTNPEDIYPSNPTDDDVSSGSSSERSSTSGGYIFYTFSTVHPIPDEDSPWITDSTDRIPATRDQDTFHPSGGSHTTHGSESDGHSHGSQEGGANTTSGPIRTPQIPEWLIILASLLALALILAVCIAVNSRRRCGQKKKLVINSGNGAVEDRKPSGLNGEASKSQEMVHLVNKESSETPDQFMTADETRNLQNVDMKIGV

B1: Matrix Metalloproteinase-9 (MMP-9), wild type (protein)
chain: APRQRQSTLVLFPGDLRTNLTDRQLAEEYLYRYGYTRVAEMRGESKSLGPALLLLQKQLSLPETGELDSATLKAMRTPRCGVPDLGRFQTFEGDLKWHHHNITYWIQNYSEDLPRAVIDDAFARAFALWSAVTPLTFTRVYSRDADIVIQFGVAEHGDGYPFDGKDGLLAHAFPPGPGIQGDAHFDDDELWSLGKGVVVPTRFGNADGAACHFPFIFEGRSYSACTTDGRSDGLPWCSTTANYDTDDRFGFCPSERLYTQDGNADGKPCQFPFIFQGQSYSACTTDGRSDGYRWCATTANYDRDKLFGFCPTRADSTVMGGNSAGELCVFPFTFLGKEYSTCTSEGRGDGRLWCATTSNFDSDKKWGFCPDQGYSLFLVAAHEFGHALGLDHSSVPEALMYPMYRFTEGPPLHKDDVNGIRHLYGPRPEPEPRPPTTTTPQPTAPPTVCPTGPPTVHPSERPTAGPTGPPSAGPTGPPTAGPSTATTVPLSPVDDACNVNIFDAIAEIGNQLYLFKDGKYWRFSEGRGSRPQGPFLIADKWPALPRKLDSVFEERLSKKLFFFSGRQVWVYTGASVLGPRRLDKLGLGADVAQVTGALRSGRGKMLLFSGRRLWRFDVKAQMVDPRSASEVDRMFPGVPLDTHDVFQYREKAYFCQDRFYWRVSSRSELNQVDQVGYVTYDILQCPED
- phosphorylation of EGFR, western blotting: expression of MMP-9 in wild type COS-1 cells resulted in increased phosphorylation of EGFR as compared to vector control. This activation of EGFR did not occurred in CD44-silenced COS-1 cells transfected with MMP-9 cDNA
